Data on eight molecules can be found in patent US12478674 (dated 2025).

As usually defined, the EC50 is the concentration at which the effect is half-maximal. Low readings indicate an effect from little substance, high ones a need for much substance. Broadly, the Kd is the equilibrium constant for the complex coming apart. Lower therefore signals tighter binding.

Assay [1] has as its target human CTLA-4 (human). Nature of the assay: FACS, pH 7.3. On the technique in general: In flow cytometry, cells or beads pass a laser one at a time.
Assay [2] addresses human CTLA-4 (human). Nature of the assay: FACS, pH 6.0.
The target of assay [3] is human CTLA-4 (human). As to the kind of experiment: SPR, pH 6.0, 37C. A general note: Surface plasmon resonance follows binding to a sensor surface in real time, without labels.
Assay [4] concerns the target human CTLA-4 (human). Nature of the assay: SPR, pH 6.0, 37C. This is another data set of the same source.
For assay [5], the target named is human CTLA-4 (human). As to the kind of experiment: SPR, pH 6.0, 37C. The source holds these as a separate data set.
The target of assay [6] is human CTLA-4 (human). As to the kind of experiment: SPR, pH 7.4, 37C.
Assay [7] addresses human CTLA-4 (human). Nature of the assay: SPR, pH 7.4, 37C. The source holds these as a separate data set.
Assay [8] concerns the target human CTLA-4 (human). As to the kind of experiment: SPR, pH 7.4, 37C. This is another data set of the same source.
In assay [9] the target is human CTLA-4 (human). As to the kind of experiment: FACS, pH 6.2, bivalent.
Assay [10] concerns the target human CTLA-4 (human). As to the kind of experiment: FACS, pH 6.7, bivalent.
Assay [11] addresses human CTLA-4 (human). Nature of the assay: FACS, pH 7.2, bivalent.

Substitutions are numbered along the chain they refer to. “And” between values parts separate entries of the source, which are not always exact repeats. Identical values can stand only once.

Chain of human CTLA-4 (human) (chain, as listed by the source): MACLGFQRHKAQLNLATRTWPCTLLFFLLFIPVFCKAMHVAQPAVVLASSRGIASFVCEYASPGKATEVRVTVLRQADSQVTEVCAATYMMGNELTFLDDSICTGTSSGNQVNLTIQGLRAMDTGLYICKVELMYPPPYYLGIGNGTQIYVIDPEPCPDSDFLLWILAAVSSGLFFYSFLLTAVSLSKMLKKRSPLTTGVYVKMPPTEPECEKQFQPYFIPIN

B1: ipilimumab (ipi) Fab (antibody, V domains shown)
VH: QVQLVESGGGVVQPGRSLRLSCAASGFTFSSYTMHWVRQAPGKGLEWVTFISYDGNNKYYADSVKGRFTISRDNSKNTLYLQMNSLRAEDTAIYYCARTGWLGPFDYWGQGTLVTVSS
VL: not shown
Consider B1, for which the EC50 was 5.4 nM with human CTLA-4 [1] and 7.1 nM in the assay with human CTLA-4 [2]. Further, the Kd with human CTLA-4 [3] is 21 nM; with human CTLA-4 [4] it was 21 nM; in the assay with human CTLA-4 [5], 46 nM; with human CTLA-4 [6], 47 nM; in the assay with human CTLA-4 [7], 22 nM; with human CTLA-4 [8] it was 22 nM and 14 nM.

B2: ipi.64 Fab (antibody, V domains shown)
VH: B1 VH with S31H
VL: not shown
Take B2: the 50% effective concentration (EC50) in the assay with human CTLA-4 [1] is 140 nM; with human CTLA-4 [2] it was 3.3 nM.

B3: ipilimumab IgG1 (antibody, V domains shown)
VH: B1 VH
VL: not shown
Take B3: the concentration giving a half-maximal response (EC50) was 2.76 nM with human CTLA-4 [9], 2.35 nM with human CTLA-4 [10] and 1.84 nM in the assay with human CTLA-4 [11].

B4: ipi.100 IgG1 (antibody, V domains shown)
VH: B1 VH with S31H
VL: not shown
Take B4: the EC50 turned out to be 2.94 nM with human CTLA-4 [9], 2.85 nM with human CTLA-4 [10] and 2.8 nM with human CTLA-4 [11].

B5: ipi.106 IgG1 (antibody, V domains shown)
VH: B1 VH with S31H, N56H, T99H
VL: EIVLTQSPGTLSLSPGERATLSCRASQEVGESELAWYQQKPGQAPRLLIYGAFSRATGIPDRFSGSGSGTDFTLTISRLEPEDFAVYYCQQYGSSPWTFGQGTKVEIKR
With B5, the figures for the EC50 in the assay with human CTLA-4 [9], with human CTLA-4 [10] and in the assay with human CTLA-4 [11] were 3.15 nM, 4.37 nM and 11.5 nM, respectively.

B6: ipi.64 IgG1 (antibody, V domains shown)
VH: B1 VH with S31H
VL: not shown
Regarding B6, the EC50 was found to be 2.93 nM with human CTLA-4 [9], 2.97 nM in the assay with human CTLA-4 [10] and 3.1 nM with human CTLA-4 [11].

B7: ipi.101 IgG1 (antibody, V domains shown)
VH: B1 VH with S31H, N56H
VL: not shown
Take B7: the half-maximal effective concentration (EC50) in the assay with human CTLA-4 [9] worked out at 3.52 nM; with human CTLA-4 [10], 4.06 nM; with human CTLA-4 [11] it was 3.81 nM.

B8: ipi.105 IgG1 (antibody, V domains shown)
VH: B1 VH with S31H, N56H
VL: B5 VL
For B8, the concentration giving a half-maximal response (EC50) in the assay with human CTLA-4 [9] stood at 2.6 nM; with human CTLA-4 [10] it was 3.45 nM; with human CTLA-4 [11] it was 3.94 nM.
